In patent publication US8575303 one finds stain index, fold over a Pacific Blue control conjugate of the same antibody and MFI/zero (fluorescence highest point in standard curve/fluorescence zero concentration of analyte) data, which are given here for two substances.

The target of test [1] is unlabeled anti-CD4 (RPA-T4 clone, BD Biosciences) raised in mouse against the human antigen. The experiment in a line: flow cytometry on Cyto-trol cells pre-labeled with mouse anti-CD4 primary (Example 36, FIG. 20B). In general terms: A flow cytometer gives signals particle by particle.
The target in test [2] is Mouse IgG. Nature of the test: Luminex xMap bead sandwich assay, mouse IgG titration, detection with streptavidin-phycoerythrin at 4 ug/mL.
In test [3] the target is Mouse IgG. Nature of the test: Luminex xMap bead sandwich assay, mouse IgG titration, detection with streptavidin-conjugated polymer.

“405 polymer-goat anti-mouse conjugate (amine-functionalized 405 polymer conjugated to goat anti-mouse IgG purified antibody)” displayed a stain index, fold over a Pacific Blue control conjugate of the same antibody in test [1] above 4 fold.
“Donkey anti-mouse IgG antibody covalently conjugated to xMap beads”: the MFI/zero (fluorescence highest point in standard curve/fluorescence zero concentration of analyte) with Mouse IgG [2] worked out at 21.8; with Mouse IgG [3] it was 26.6.
